The source of these data is paper PMC12819146.

Test [1] concerns the target PtuA of retron Ec78, wild type, His-Sumo tagged (E. coli ECONIH5). Put plainly: SEC. For orientation: Size exclusion chromatography separates by hydrodynamic size, large species first.
Test [2] addresses PtuA-E396Q of retron Ec78 (ATPase-deficient mutant), as expressed from the Ec78 operon (E. coli ECONIH5). Put plainly: cryo-EM structure.
The target in test [3] is PtuA-Q361L of retron Ec78, His-Sumo tagged, co-expressed with PtuB without the retron (E. coli ECONIH5). Put plainly: cryo-EM structure.

On to “PtuA of retron Ec78, wild type, His-Sumo tagged (enzyme)”, for which the stoichiometry N in test [1] was found to be 4. Take “PtuA-E396Q of retron Ec78 (ATPase-deficient mutant), as expressed from the Ec78 operon (enzyme)”: the stoichiometry N in test [2] came out at 4. As for “PtuA-Q361L of retron Ec78, His-Sumo tagged, co-expressed with PtuB without the retron (enzyme)”, in test [3], the stoichiometry N stood at 4. Take “PtuB of retron Ec78 with C-terminal His-tag, as expressed from the Ec78 operon (enzyme)”: the stoichiometry N (PtuB subunits for four PtuA subunits) in test [2] was 2.

In test [3], “PtuB of retron Ec78, co-expressed with His-Sumo-PtuA from pRSF-Duet (enzyme)” had a stoichiometry N (PtuB subunits for four PtuA subunits) of 2. In test [2], “Reverse transcriptase of retron Ec78 (enzyme)” displayed a stoichiometry N (RT for four PtuA subunits) of 2 and a stoichiometry N (RT–ncRNA–msDNA for four PtuA subunits) of 1.

The stoichiometry N is the number of molecules, sites or subunits per partner or assembly.
